# Where a chain is given by its changes, count along the chain named.
# B1: YU505-A01 (antibody, V domains shown)
# VH: QVQLVQSGAEVKKPGASVKVSCKASGYTFTSYYMHWVRQAPGQGLEWMGIINPSGGSTSYAQKFQGRVTMTRDTSTSTVYMELSSLRSEDTAVYYCARDRHYYDSSGSSQATFLFDYWGQGTLVTVSS
# VL: QSVLTQPPSVSGAPGQRVTISCTGSSSNIGAGYDVHWYQQLPGTAPKLLIYGNSNRPSGVPDRFSGSKSGTSASLAITGLQAEDEADYYCQSYDSSLNVFGTGTKLTVL
# B2: YU505-E01 (antibody, V domains shown)
# VH: QVQLVQSGAEVKKPGSSVKVSCKASGGTFSSYSIVWVRQAPGQGLEWMGGIIPIFGTTNYAQKFQGRVTITADESTSTAFMELSNLKSEDTAVYFCARSLGATRDYWGQGTLVTVSS
# VL: SYVLTQPPSVSEAPRQRVTISCSGSSSNIGNNAVNWYQQLPGKAPKLLIYYDDLLPSGVSDRFSGSKSGTSASLAISGLQSEDEADYYCAAWDDSLNGPVFGGGTKVTVL
# B3: YU505-F05 (antibody, V domains shown)
# VH: EVQLLESGGGVVQPGRSLRLSCAASGFTFSSYGMHWVRQAPGKGLEWVAVMSYDGSKKYYADSVKGRFTISRDNSKNTLYLQMNSLRAEDTAVYYCVTQGMDVWGQGTLVTVSS
# VL: QSVLTQPPSVSVAPGKTARITCGGNNIGSKSVHWYQQKPGQAPVLVIYYISDRPSGIPERFSGSNSGNTATLTISRVEAGDEAAYYCHVWDSSSDHVVFGGGTKLTVL
# B4: YU505-A02 (antibody, V domains shown)
# VH: QVQLVESGAEVKKPGSSVKVSCKASGGTFSSYAISWVRQAPGQGLEWMGGIIPIFGTANYAQKFQGRVTITADESTSTAYMELSSLRSEDTAVYYCARQIWAYDSSGYPVPAEYFQHWGQGTLVTVSS
# VL: QSVLTQPPSVSGAPGQRVTISCTGSSSNIGAGYDVHWYQQLPGTAPKLLIYGNSNRPSGVPDRFSGSKSGTSASLAITGLQAEDEADYYCQSYDSSLSGVVFGGGTKLTVL
# B5: YU519-A09 (antibody, V domains shown)
# VH: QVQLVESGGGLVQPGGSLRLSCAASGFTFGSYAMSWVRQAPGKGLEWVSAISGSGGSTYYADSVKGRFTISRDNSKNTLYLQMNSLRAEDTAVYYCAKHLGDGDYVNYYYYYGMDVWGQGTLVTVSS
# VL: SYVLTQPPSVSVAPRQTARITCGGNNIGSKNVHWYQQKPGQAPVLVVYDDNVRPSGIPERFSGSNSGNTATLTISRVEAGDEADYYCQVWLNSSDDVLFGGGTKVTVL
# B6: YU505-A05 (antibody, V domains shown)
# VH: QVQLVQSGAEVKKPGSSVKVSCKASGGTFSSYAISWVRQAPGQGLEWMGGIIPIFGTANYAQKFQGRVTITADESTSTAYMELSSLRSEDTAVYYCARSDSGYSGYGYFDYWGQGTLVTVSS
# VL: QSALTQPASVSGSPGQSISISCTGTSSDVGRYNYVSWYQQHPGKAPKLMIYDVTNRPSGVSSRFSGSKSGNAASLTISGLQAEDEAEYYCTSYTSSNTLVIFGGGTKVTVL
# B7: YU505-A01 (antibody, V domains shown)
# VH: B1 VH
# VL: B1 VL
# B8: YU505-E01 (antibody, V domains shown)
# VH: B2 VH
# VL: B2 VL
# B9: YU505-E04 (antibody, V domains shown)
# VH: QVQLVQSGAEVKKPGSSVKVSCKASGGTFSSYAISWVRQAPGQGLEWMGGIIPIFGTANYAQKFQGRVTITADESTSTAYMELSSLRSEDTAVYYCARGRGYSYGHDYWGQGTLVTVSS
# VL: B2 VL with V3E, L40F, P99W, V107L
# B10: YU505-F05 (antibody, V domains shown)
# VH: B3 VH
# VL: B3 VL
# B11: YU505-B06 (antibody, V domains shown)
# VH: not shown
# VL: B3 VL with Q1S, S2Y, I50D, A84D, H88Q
# B12: YU505-D02 (antibody, V domains shown)
# VH: QVQLVQSGAEVKKPGSSVKVSCKASGGTFSSYAISWVRQAPGQGLEWMGGIIPIFGTANYAQKFQGRVTITADKSTSTAYMELSSLRSEDTAVYYCARETSSGWSFLDYWGQGTLVTVSS
# VL: B3 VL with Q1S, S2Y, I50D, A84D, H88Q, L105V
# B13: YU505-A02 (antibody, V domains shown)
# VH: B4 VH
# VL: B4 VL
# B14: YU505-E02 (antibody, V domains shown)
# VH: QVQLVQSGAEVKKPGSSVKVSCKASGGTFSSYTISWVRQAPGQGLEWMGRIIPILGIANYAQKFQGRVTITADKSTSTAYMELSSLRSEDTAVYYCARDMVSVGAAGPYYFDYWGQGTLVTVSS
# VL: B4 VL with G12E, G15R, G70V, V100S
# B15: YU505-F03 (antibody, V domains shown)
# VH: EVQLLESGAEVKKPGASVKVSCKASGYTFTGYYMHWVRQAPGQGLEWMGQINPNSGGTNYAQKFQGRVTMTRDTSISTAYMELSRLRSDDTAVYYCARGEGFDYWGQGTLVTVSS
# VL: SYVLTQPPSASGTPGQRVTISCSGSSSNIGSNYVYWYQQLPGTAPKLLIYRNNQRPSGVPDRFSGSKSGTSASLAISGLRSEGEADYYCAAWDDSLSGVVFGGGTKVTVL
# B16: hybrid antibody: VL YU536-D04 (SEQ ID No. 362) with VH STE90-C11 (SEQ ID No. 1305) (antibody, V domains shown)
# VH: QVQLVESGGGLVQPGGSLRLSCAASGLTVSSNYMSWVRQAPGKGLEWVSVIYSGGSTYYADSVKGRFTISRDDSKNTLYLQMNSLRAEDTAVYYCARDVADAFDIWGQGTMVTVSS
# VL: DIQLTQSPSSLSASVGDRVTITCRASQGISSYLAWYQQKPGKAPKLLIYAASTLQSGVPSRFSGSGSGTDFTLTISSLQPEDFATYYCQQLNSYPITFGQGTKLEIK
# B17: hybrid antibody: VL YU537-H11 (SEQ ID No. 402) with VH STE90-C11 (SEQ ID No. 1305) (antibody, V domains shown)
# VH: B16 VH
# VL: QSVLTQPPSVSAAPGQKVTISCSGSSSNIGNNYVSWYQQLPGTAPKLLIYDTNKRPSGIPDRFSGSKSGTSATLGITGLQTGDEADYYCATWDSSLSVGVFGGGTKLTVL
# B18: hybrid antibody: VL YU536-D04 (SEQ ID No. 362) with VH YU537-H11 (SEQ ID No. 404) (antibody, V domains shown)
# VH: EVQLLESGGGLIQPGGSLRLSCAASGLTVSSNYMSWVRQAPGKGLEWVSVIYSGGSTYYADSVKGRFTISRDNSKNALYLQMNSLRAEDTAVYYCARGESGSPYGMDVWGQGTLVTVSS
# VL: B16 VL
# B19: hybrid antibody: VL STE90-C11 (SEQ ID No. 1309) with VH YU536-D04 (SEQ ID No. 364) (antibody, V domains shown)
# VH: QVQLVQSGGGLVQPGGSLRLSCAASGLTVSSNYMSWVRQAPGKGLEWVSVIYSGGSTYYADSVKGRFIISRDNSKNTLYLQMNSLRAEDTAVYYCARDLVVMGLDVWGKGTLVTVSS
# VL: DIVMTQSPSFLSASVGDRVTITCRASQGISSYLAWYQQKPGKAPKLLIYAASTLQSGVPSRFSGSGSGTEFTLTISSLQPEDFATYYCQQLNSYPPFTFGPGTKVDIK
# B20: hybrid antibody: VL YU537-H11 (SEQ ID No. 402) with VH YU536-D04 (SEQ ID No. 364) (antibody, V domains shown)
# VH: B19 VH
# VL: B17 VL
# B21: hybrid antibody: VL STE90-C11 (SEQ ID No. 1309) with VH YU537-H11 (SEQ ID No. 404) (antibody, V domains shown)
# VH: B18 VH
# VL: B19 VL
# Target: SARS-CoV-2 glycoprotein S (SARS-CoV-2, UniProt P0DTC2 14-1273)
# Experiment: cell-based or functional assay
row,Binder,Confluence Score in VERO E6 cell assay [%]
1,B1,> 99
2,B2,> 98
3,B3,> 95
4,B4,> 99

# Target: T1, receptor binding domain (RBD) of the S1-subunit of SARS-CoV-2 glycoprotein S (SARS-CoV-2, UniProt P0DTC2 319-541)
# Experiment: ACE2:RBD competition assay, 5 µg/ml IgG
row,Binder,ACE2:RBD inhibition with 5 µg/ml IgG [%]
1,B5,35.6
2,B6,52.7
3,B7,102
4,B8,24
5,B9,28
6,B10,26.7
7,B11,58.5
8,B12,49.4
9,B13,43.8
10,B14,58.8
11,B15,42.2

# Target: T1, receptor binding domain (RBD) of the …
# Experiment: RBD-binding quality as compared to STE90-C11, wt
row,Binder,binding result
1,B16,binds
2,B17,binds
3,B18,binds
4,B19,binds
5,B20,binds
6,B21,binds

# Target: T2, receptor binding domain (RBD) of the S1-subunit of SARS-CoV-2 glycoprotein S (SARS-CoV-2, UniProt P0DTC2 319-541)
# Experiment: ACE2:RBD competition, antibody at 5 µg/ml
row,Binder,ACE2 bound to RBD at 5 µg/ml antibody [%]
1,B1,< 30
2,B2,< 25
3,B3,< 30
4,B4,< 30

# Target: T2, receptor binding domain (RBD) of the …
# Experiment: ACE2:RBD competition, antibody at 0.5 µg/ml
row,Binder,ACE2 bound to RBD at 0.5 µg/ml antibody [%]
1,B1,< 60
2,B2,< 50
3,B3,< 60
4,B4,< 60

# From patent US20240059758A1 (CORAT THERAPEUTICS, published 2024)
